{"source": "patent US20200024331A1", "about": "(published 2020)", "binders": {"B1": {"name": "CC3 (VHH)", "VHH": "EVQLQASGGGSVQAGGSLRLSCVTSQNLFEYYTMGWYRQVPGSQRERVALINNGGSTVAGSVEGRFTISRDHAKNSVYLQMNYLKPEDSAVYYCRAFGPADYWGQGTQVTVSS"}, "B2": {"name": "CA6 (VHH)", "VHH": "EVQLQASGGGLVRPGGSLRLSCAASGSFFTIDTMAWYRQAPGRRRELVARQSSGRSPDYDDSVVGRFTISRDIAKSSVYLQMDSLQPEDTALYYCYQSIRPWPGSSYEAHWGQGIQVIVSS"}}, "key": {"[1]": {"target": "Chikungunya virus-like particles (CHIKV VLP) (Chikungunya virus, UniProt Q8JUX5 810-1248; Q8JUX5 326-748)", "sequence (Q8JUX5 810-1248, chain 1 of 2)": "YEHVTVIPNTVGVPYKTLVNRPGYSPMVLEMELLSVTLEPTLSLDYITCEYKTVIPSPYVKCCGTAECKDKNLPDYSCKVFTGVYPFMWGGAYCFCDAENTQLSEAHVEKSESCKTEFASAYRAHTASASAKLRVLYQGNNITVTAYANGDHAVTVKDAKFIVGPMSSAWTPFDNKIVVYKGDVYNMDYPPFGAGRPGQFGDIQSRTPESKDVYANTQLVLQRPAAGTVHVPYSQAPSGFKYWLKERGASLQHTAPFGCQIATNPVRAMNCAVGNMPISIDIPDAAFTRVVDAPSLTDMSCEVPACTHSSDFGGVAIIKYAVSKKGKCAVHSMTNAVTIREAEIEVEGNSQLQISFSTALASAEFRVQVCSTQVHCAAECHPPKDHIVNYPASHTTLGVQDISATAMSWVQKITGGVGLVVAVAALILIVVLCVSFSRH", "sequence (Q8JUX5 326-748, chain 2 of 2)": "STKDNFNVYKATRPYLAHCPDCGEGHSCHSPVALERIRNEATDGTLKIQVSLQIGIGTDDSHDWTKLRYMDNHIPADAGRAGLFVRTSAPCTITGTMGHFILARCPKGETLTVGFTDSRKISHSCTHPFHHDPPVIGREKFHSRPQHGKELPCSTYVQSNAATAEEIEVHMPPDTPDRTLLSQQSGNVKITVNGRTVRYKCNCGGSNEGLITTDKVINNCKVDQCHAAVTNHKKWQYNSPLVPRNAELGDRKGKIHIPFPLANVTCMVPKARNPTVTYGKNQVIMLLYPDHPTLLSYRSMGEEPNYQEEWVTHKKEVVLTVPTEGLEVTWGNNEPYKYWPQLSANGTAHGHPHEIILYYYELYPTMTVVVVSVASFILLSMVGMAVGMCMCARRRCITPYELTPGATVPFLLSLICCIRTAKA", "experiment": "SPR"}, "[2]": {"target": "Chikungunya virus E1 protein (Chikungunya virus, UniProt Q8JUX5 810-1224)", "sequence (Q8JUX5 810-1224)": "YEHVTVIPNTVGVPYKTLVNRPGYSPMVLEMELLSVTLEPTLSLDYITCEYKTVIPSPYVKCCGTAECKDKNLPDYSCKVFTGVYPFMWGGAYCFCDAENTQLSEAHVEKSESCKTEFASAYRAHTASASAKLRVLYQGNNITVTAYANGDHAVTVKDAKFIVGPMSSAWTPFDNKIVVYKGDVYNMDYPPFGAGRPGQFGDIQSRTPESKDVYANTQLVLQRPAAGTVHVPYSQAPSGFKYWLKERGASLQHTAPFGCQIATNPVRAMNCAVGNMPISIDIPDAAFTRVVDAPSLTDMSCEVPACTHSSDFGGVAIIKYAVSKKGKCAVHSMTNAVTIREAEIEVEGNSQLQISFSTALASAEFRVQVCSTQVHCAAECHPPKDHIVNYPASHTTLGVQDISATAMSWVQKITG", "experiment": "SPR"}}, "data": [{"binder": "B1", "values": [{"measurement": "Kd", "setting": "[1]", "result": 1.2, "unit": "nM"}, {"measurement": "Kd", "setting": "[2]", "result": 3.04, "unit": "nM"}]}, {"binder": "B2", "values": [{"measurement": "Kd", "setting": "[2]", "result": 0.132, "unit": "nM"}]}]}
